# Laboratory results published in patent publication US20200270351A1 (Janssen / Centocor, published 2020).
# Biological target: T1, mutant L858R/T790M EGFR on NCI-H1975 cells (human, UniProt P00533 25-1210)
# T1 construct: whole, on cells; these cells carry both this EGFR and wild type c-Met; also called H1975 target cells; HER1
# Test: confocal imaging of AF647-labeled antibody in co-culture of M1 or M2c macrophages and H1975 target cells (data not shown)
# Method: Differentiated macrophages were harvested and plated onto CellCarrier96 ultra plates at 1,00,000 cells/well (Perkin-Elmer; Cat#6055302) overnight. Assays were performed using both adhered and non-adhered target cells. For assays with adhered target cells, the H1975 NucLight Red cells were plated at 20,000/well, adhered for 4 hours, then treated with labeled Ab cocktail for 1 hour at 4° C.
row,binding result,Binder
1,binds,"JNJ-372.IgG2sigma (Fc effector silent JNJ-372) (bispecific antibody, V domains shown, Used AF488- or AF647-labeled in the assays; also called IgG2σ; EGFR/cMet IgG2G Ab) VH 1: QVQLVESGGGVVQPGRSLRLSCAASGFTFSTYGMHWVRQAPGKGLEWVAVIWDDGSYKYYGDSVKGRFTISRDNSKNTLYLQMNSLRAEDTAVYYCARDGITMVRGVMKDYFDYWGQGTLVTVSS VL 1: AIQLTQSPSSLSASVGDRVTITCRASQDISSALVWYQQKPGKAPKLLIYDASSLESGVPSRFSGSESGTDFTLTISSLQPEDFATYYCQQFNSYPLTFGGGTKVEIK VH 2: QVQLVQSGAEVKKPGASVKVSCETSGYTFTSYGISWVRQAPGHGLEWMGWISAYNGYTNYAQKLQGRVTMTTDTSTSTAYMELRSLRSDDTAVYYCARDLRGTNYFDYWGQGTLVTVSS VL 2: DIQMTQSPSSVSASVGDRVTITCRASQGISNWLAWFQHKPGKAPKLLIYAASSLLSGVPSRFSGSGSGTDFTLTISSLQPEDFATYYCQQANSFPITFGQGTRLEIK"
2,binds,"JNJ-61186372 (JNJ-372), IgG1 anti-EGFR/c-Met bispecific antibody (bispecific antibody, Produced in a cell line incorporating low levels (<9%) of fucose) heavy 1: not shown light 1: not shown heavy 2: not shown light 2: DIQMTQSPSSVSASVGDRVTITCRASQGISNWLAWFQHKPGKAPKLLIYAASSLLSGVPSRFSGSGSGTDFTLTISSLQPEDFATYYCQQANSFPITFGQGTRLEIKRTVAAPSVFIFPPSDEQLKSGTASVVCLLNNFYPREAKVQWKVDNALQSGNSQESVTEQDSKDSTYSLSSTLTLSKADYEKHKVYACEVTHQGLSSPVTKSFNRGEC"
